Measurements: PMC7013354, “Selection and Characterization of CSFV-Specific Single-Domain Antibodies and Their Application along with Immunomagnetic Nanobeads and Quantum Dots” (BioMed Research International, 2020)

B1: AF488-sdAbE2-2 probe (VHH)
VHH: DVQLVESGGGLVQAGGSLRLSCTASGFTFDDYAMAWFRQPPGKEREGVSCISSSGGSTWYADSVKGRFTVSRDNAKNTLYLQMNSLKPEDTAMYYCAADWGRLCVVRGPRNEYKYSGQGTQVTVSS
notes: also called AF488-labeled sdAbE2-2
B2: recombinant sdAbE2-2 (VHH)
VHH: B1 VHH
notes: also called sdAdE2-2; sdAbE2s
B3: recombinant sdAbE2-1 (VHH)
VHH: QVQLLESGGGLVQPGGSLRLSCAASGYSFIDKTMAWVRQAPGKGLEWVSAIRMHNGSTYYADSVKGRFTISRDNSKNTLYLQMNSLRAEDTAVYYCARLSRRIQAKDKAKLKYWGQGTLVTVSS
notes: also called sdAdE2-1; sdAbE2s
B4: QD-sdAbE2-1 probe (VHH)
VHH: B3 VHH
notes: also called QD605-labeled sdAbE2-1; QDs-sdAbE2-1

Experiments:
Details in all cases: one partner purified
[1] = target: T1, E2 of CSFV in infected ST cells and on CSFV virions (Classical swine fever virus, C-strain, UniProt Q96891, strain); experiment: immunostaining of cells or tissue
T1 construct: also called E2 of CSFV in ST cells

[2] = target: T1, E2 of CSFV in infected ST cells and on …; experiment: far-Western, overlay or dot blot
[3] = target: T1, E2 of CSFV in infected ST cells and on …; experiment: pull-down

Row | Binder | binding result [1] | other results
1 | B1 | binds | –
2 | B2 | – | binding result [2]: binds
3 | B3 | – | binding result [3]: binds
4 | B4 | binds | –
